Several values for one entry are separate records, joined by “and”; a condition that tells them apart may be missing. Equal values may be shown once.

The text below walks through data of patent publication US9969998B2, “Compositions of adenosine deaminase-2 (ADA2), variants thereof and methods of using same” (Halozyme, Inc., priority 2014, dated 2018).

Data set [1] in a line: Thermal stability, melting temperature (Tm) by differential scanning fluorimetry. The note with it: compared to ADA1. The format is physicochemical. From the text:
Proteins differ in their degrees of thermal stability (or thermostability). In particular, proteins with biological activities, such as enzymes, can have different optimal temperatures. Thermostability, the quality of a protein to resist irreversible change in its chemical or physical structure at a relatively high temperature, can be indicative of overall stability of a protein. Increased temperature usually induces protein unfolding, and disruption of secondary, tertiary and quaternary structure of proteins, leading to destabilization of protein. Thermostability of a protein, such as any ADA2 polypeptide provided herein, can be determined by measuring the changes in enzymatic activity and/or other physical properties, before and after incubation in relatively high or low temperatures.
The stability of a protein can be determined by measuring the activity of the protein as a function of time. The melting temperature (Tm) of the protein can be used as a marker of solution stability and in vivo stability for proteins. The unfolding temperature of a particular protein refers to that temperature at which the protein loses its secondary structure and typically, its activity and can be determined using methods known to those of skill in the art and described herein, such as differential scanning calorimetry […]. […] In other examples, the thermal stability can be measured biochemically. […]
A general note: DSF heats the sample and reads unfolding from a dye or from intrinsic fluorescence.

The conditions of data set [2]: 24 hours, 37° C.
Data set [3] concerns CT26 murine colon cancer tumor. The data set can be described thus: Tumor growth inhibition, CT26 syngeneic tumor model. It counts as in vivo, BALB/c mice. As to the method: Forty-four (44) male BALB/c mice were inoculated subcutaneously with 5×10^6 murine colon cancer tumor cells (CT26, ATCC CRL-2638) in 0.1 mL injection volume per animal. Tumor volume was determined using digital calipers by caliper measurement of the length (L) and width (W) of the solid tumor masses. Tumor volume (TV) was calculated as: (L×W^2)/2. Tumors were allowed to grow and tumor bearing mice were staged until when the tumors were palpable and measured to be about 50-100 mm^3.
PEGylated rHuADA2-K374D (K371D by mature numbering) was prepared as described in Example 8.A, with minor modifications to generate a preparation in which approximately 100% of the molecules were PEGylated as assessed by SDS-PAGE.
For treatment, animals were randomized into four groups (n=8/group). CT26 tumor bearing mice were then injected intravenously (IV) every other day, at 3 mg/kg body weight, 10 mg/kg body weight or 30 mg/kg body weight doses of PEG-K374D (PEG-K371D by mature numbering) or vehicle control (buffer only) every other day. Tumor volume was measured at day 0 and 8 using caliper measurement as described above. […] One mouse from the vehicle group was excluded due to significant tumor growth inhibition.

Data set [4] has as its system adenosine in tumor extracellular matrix. The data set can be described thus: Adenosine in MH194+PSC4 tumor extracellular matrix (microdialysis, LC/MS). The format is in vivo, mice. The settings on record: for Adenosine concentration in ECM, Mean: n = 8; for Adenosine concentration in ECM, individual tumors: single animal values; for adenosine concentration in tumor ECM: 0.03 mg/kg. How it is done:
To assess the effects of PEGADA2 on adenosine in tumor extracellular matrix, mice bearing peritibial MH194+PSC4 tumors received vehicle, the polypeptide whose sequence is set forth in SEQ ID NO:20, which contains the amino acid replacement K374D (Zavialov numbering; K371D mature numbering), at 0.03 mg/kg, or the polypeptide whose sequence is set forth in SEQ ID NO: 273, which contains the amino acid replacements R222Q/S265N (Zavialov numbering; R219Q/S262 mature numbering), at 0.03 mg/kg, 24 or 48 hours prior to microdialysis. Each of the polypeptides were PEGylated as described above in Examples 8 and 22). The mice were anesthetized using isofluorane, and a heating pad was used to maintain body temperature. A small incision was made on the tumor. A microdialysis probe with 55,000 Da molecular weight cut-off (CMA, Stockholm, Sweden) was inserted into the tumor, via a guided cannula. The length of the microdialysis probe used in this study was 10 mm. Once the probe was in position, the cannula was withdrawn leaving the probe completely embedded in the tumor tissue. Dulbecco's phosphate buffered saline (DPBS; Thermo Fisher Scientific) with ADA inhibitors (Pentostatin and 5-iodotubercindin) was perfused through the probe at a flow rate of 1 μl/min for 30 minutes. Then the samples were collected at a flow rate of 0.5 μl/min for 60 minutes. Microdialysis perfusates were analyzed by Liquid chromatography-mass spectrometry (LC/MS) at MicroConstants (9050 Camino Santa Fe, San Diego, Calif. 92121).

[5] abbreviates: day 8; 3 mg/kg IV every other day.
The mark [6] stands for this setting: day 8; 10 mg/kg IV every other day.
[7] abbreviates: day 8; 30 mg/kg IV every other day.

B1: ADA2: wild-type human adenosine deaminase 2, mature form SEQ ID NO:5, homodimer (protein, listed as Homo sapiens)
chain: IDETRAHLLLKEKMMRLGGRLVLNTKEELANERLMTLKIAEMKEAMRTLIFPPSMHFFQAKHLIERSQVFNILRMMPKGAALHLHDIGIVTMDWLVRNVTYRPHCHICFTPRGIMQFRFAHPTPRPSEKCSKWILLEDYRKRVQNVTEFDDSLLRNFTLVTQHPEVIYTNQNVVWSKFETIFFTISGLIHYAPVFRDYVFRSMQEFYEDNVLYMEIRARLLPVYELSGEHHDEEWSVKTYQEVAQKFVETHPEFIGIKIIYSDHRSKDVAVIAESIRMAMGLRIKFPTVVAGFDLVGHEDTGHSLHDYKEALMIPAKDGVKLPYFFHAGETDWQGTSIDRNILDALMLNTTRIGHGFALSKHPAVRTYSWKKDIPIEVCPISNQVLKLVSDLRNHPVATLMATGHPMVISSDDPAMFGAKGLSYDFYEVFMGIGGMKADLRTLKQLAMNSIKYSTLLESEKNTFMEIWKKRWDKFIADVATK
modifications: ADA2 mature protein
B1: the thermal stability result in data set [1] is on record as “higher thermal stability”. Moreover, the “activity retained in PBS/BSA control” value in data set [2] is on record as “no change in activity”. Besides, the “activity retained after treatment with plasma” value in data set [2] (mouse plasma) is on record as “about 65%”.

B2: PEG-K374D: rHuADA2-K374D (SEQ ID NO:20) PEGylated on surface exposed lysines with linear PEG-20K (conjugate)
chain: IDETRAHLLLKEKMMRLGGRLVLNTKEELANERLMTLKIAEMKEAMRTLIFPPSMHFFQAKHLIERSQVFNILRMMPKGAALHLHDIGIVTMDWLVRNVTYRPHCHICFTPRGIMQFRFAHPTPRPSEKCSKWILLEDYRKRVQNVTEFDDSLLRNFTLVTQHPEVIYTNQNVVWSKFETIFFTISGLIHYAPVFRDYVFRSMQEFYEDNVLYMEIRARLLPVYELSGEHHDEEWSVKTYQEVAQKFVETHPEFIGIKIIYSDHRSKDVAVIAESIRMAMGLRIKFPTVVAGFDLVGHEDTGHSLHDYKEALMIPAKDGVKLPYFFHAGETDWQGTSIDRNILDALMLNTTRIGHGFALSKHPAVRTYSWDKDIPIEVCPISNQVLKLVSDLRNHPVATLMATGHPMVISSDDPAMFGAKGLSYDFYEVFMGIGGMKADLRTLKQLAMNSIKYSTLLESEKNTFMEIWKKRWDKFIADVATK
modifications: linear PEG-20K on surface lysines; human ADA2 K371D, mature numbering
As to B2, the “Average Tumor Volume” value was determined as 257.72 mm^3 in data set [3] (3 mg/kg IV every other day; day 8); 207.84 mm^3 in data set [3] (10 mg/kg IV every other day; day 8); 187.32 mm^3 in data set [3] (30 mg/kg IV every other day; day 8); 257.72 mm^3 in data set [3] (setting [5]); 207.84 mm^3 in data set [3] (setting [6]); 187.32 mm^3 in data set [3] (setting [7]). Besides, the “Tumor Growth Inhibition” value in data set [3] (3 mg/kg IV every other day; day 8; vs vehicle) is given as 50%; in data set [3] (10 mg/kg IV every other day; day 8; vs vehicle), 63%; in data set [3] (30 mg/kg IV every other day; day 8; vs vehicle) it was 68%. The figures for the “tumor growth inhibition (TGI)” value in data set [3] (setting [5]), in data set [3] (setting [6]) and in data set [3] (setting [7]) were 50%, 63% and 68%, respectively.

B3: K374D: ADA2 variant SEQ ID NO:20 (protein)
chain: IDETRAHLLLKEKMMRLGGRLVLNTKEELANERLMTLKIAEMKEAMRTLIFPPSMHFFQAKHLIERSQVFNILRMMPKGAALHLHDIGIVTMDWLVRNVTYRPHCHICFTPRGIMQFRFAHPTPRPSEKCSKWILLEDYRKRVQNVTEFDDSLLRNFTLVTQHPEVIYTNQNVVWSKFETIFFTISGLIHYAPVFRDYVFRSMQEFYEDNVLYMEIRARLLPVYELSGEHHDEEWSVKTYQEVAQKFVETHPEFIGIKIIYSDHRSKDVAVIAESIRMAMGLRIKFPTVVAGFDLVGHEDTGHSLHDYKEALMIPAKDGVKLPYFFHAGETDWQGTSIDRNILDALMLNTTRIGHGFALSKHPAVRTYSWDKDIPIEVCPISNQVLKLVSDLRNHPVATLMATGHPMVISSDDPAMFGAKGLSYDFYEVFMGIGGMKADLRTLKQLAMNSIKYSTLLESEKNTFMEIWKKRWDKFIADVATK
modifications: human ADA2 K371D, mature numbering
On to B3, for which the “Adenosine concentration in ECM, Mean” value in data set [4] (24 hours after 0.03 mg/kg) was found to be 19.54 µM; in data set [4] (48 hours after 0.03 mg/kg) it was 11.06 µM. For the same molecule, the “Adenosine concentration in ECM, individual tumors” value in data set [4] (24 hours after 0.03 mg/kg) is 49.02 µM and 12.72 µM and 29.64 µM and 13.58 µM and 12.54 µM and 7.48 µM and 2.04 µM and 29.30 µM; in data set [4] (48 hours after 0.03 mg/kg), 23.13 µM and 0.07 µM and 6.47 µM and 2.77 µM and 20.92 µM and 1.64 µM and 27.54 µM and 5.95 µM. For the same molecule, the results for the “adenosine concentration in tumor ECM” value in data set [4] (24 hours post treatment) and in data set [4] (48 hours post treatment) were 19.5 µM and 11 µM, respectively.
